Here are results for 3 molecules from PMC12482441 (Autophagy Reports, 2025).

A word on the stoichiometry N: it is a count of units in the complex or per binding partner.

Data set [1] deals with His-MBP-tagged N. fulvescens Atg17 (N. fulvescens). The data set can be described thus: negative stain EM.
The data set “negative stain EM” concerns the molecule itself. The data set can be described thus: negative stain EM.

Turning to “His-MBP-tagged N. fulvescens Atg17 (natural protein)”, the stoichiometry N in data set [1] was determined as 2.

B1: His-MBP-tagged S. pombe Atg17 (natural protein, UniProt O42651 1-411, looked up)
chain: MELLQQWTQQAKAALTQARQLCGDAHKFNEDAKTDLRNSIKQHQQLKELAKLTASQCTRLDSSTALIKQLLDLVQNYPTFNQLNVLHDRLESSLKRLRDCTLDPALGSEYTNLYAFVDDTALEDLKTRLRGVTDGVWNAFEKLAGLLEEDLCANYHKRLEAVSLDFLPPAYNDTAEELADLLLQVAQHYDQCSEALNIYDTLSDAEKKDLQEVLQSDSNHVPSVLTELRSGLDQTIHYFNAVQSYKSKVDSATSILEALAEELNKNQLTNQRHEAAHELMRAQTGLEIPQLAQELVQLERHYTHFAKAYTALLQEIHRRQTYENCVRSIVDEFVGRLEKEQQAEAKCRIDFFNQYGDYLPQTLWGAVTDPPLHFEIIEHQYTELPNVKVIPDKNDKKSKQREKSSTTASKR
Consider B1, for which the “stoichiometry N” value in “negative stain EM” was found to be 2.

B2: His-MBP-tagged S. cerevisiae Atg17 (natural protein, UniProt Q06410 1-417, looked up)
chain: MNEADVTKFVNNARKTLTDAQLLCSSANLRIVDIKKKLSSWQLSISKLNFLIVGLRQQGKFLYTILKEGIGTKLIQKQWNQAVLVVLVDEMKYWQYEITSKVQRLDGIVNELSISEKDDTDPSKLGDYISRDNVNLLNDKLKEVPVIERQIENIKLQYENMVRKVNKELIDTKLTDVTQKFQSKFGIDNLMETNVAEQFSRELTDLEKDLAEIMNSLTQHFDKTLLLQDKKIDNDEREELFKVVQGDDKELYNIFKTLHEVIDDVDKTILNLGQFLQAKIKEKTELHSEVSEIINDFNRNLEYLLIFKDISNLIDSFKNSCTQDIQTTKELCEFYDNFEESYGNLVLEAKRRKDVANRMKTILKDCEKQLQNLDAQDQEERQNFIAENGTYLPETIWPGKIDDFSSLYTLNYNVKNP
As for B2, the “stoichiometry N” value in “negative stain EM” turned out to be 2.
